This note sets out measurements from PMC6937246.

The target in test [1] is purified tubulin dimer. As to the kind of experiment: SPR. A general note: Surface plasmon resonance follows binding to a sensor surface in real time, without labels.
Test [2] addresses purified tubulin dimer. As to the kind of experiment: SPR; VASH1 K168E/C169S. The settings on record: complex.
Test [3] deals with purified tubulin dimer. As to the kind of experiment: SPR; VASH1 R222A/C169S. The settings on record: complex.

Chain of VASH1-SVBP complex, VASH1 mutated at K168 (Q7L8A9 44-315, change not shown): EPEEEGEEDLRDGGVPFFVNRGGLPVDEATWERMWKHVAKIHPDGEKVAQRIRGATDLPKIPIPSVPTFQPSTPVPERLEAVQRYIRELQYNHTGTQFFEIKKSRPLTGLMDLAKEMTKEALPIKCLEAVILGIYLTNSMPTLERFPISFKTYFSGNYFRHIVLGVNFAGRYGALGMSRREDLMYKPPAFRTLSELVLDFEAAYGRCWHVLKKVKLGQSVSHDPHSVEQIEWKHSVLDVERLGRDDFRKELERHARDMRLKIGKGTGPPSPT
Chain of VASH1-SVBP complex, VASH1 mutated at K168 (Q8N300 whole entry, change not shown): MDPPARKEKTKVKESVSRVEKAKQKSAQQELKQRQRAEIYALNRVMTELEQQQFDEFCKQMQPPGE
Chain of VASH1-SVBP complex, VASH1 mutated at R222 (Q7L8A9 44-315, change not shown): as the sequence (Q7L8A9 44-315, change not shown) above
Chain of VASH1-SVBP complex, VASH1 mutated at R222 (Q8N300 whole entry, change not shown): as the sequence (Q8N300 whole entry, change not shown) above

The substance VASH1 S221A/C169S-SVBP showed a Kd with purified tubulin dimer [1] of 570 nM.
In the case of “VASH1-SVBP complex, VASH1 mutated at K168 (from UniProt Q7L8A9 44-315; Q8N300 1-66)”, in the test with purified tubulin dimer [2], the Kd is 1140 nM.
In turn, VASH1 C169A-SVBP gave a Kd in the test with purified tubulin dimer [1] of 990 nM.
VASH1 C169S-SVBP displayed an equilibrium dissociation constant (Kd) in the test with purified tubulin dimer [1] of 470 nM.
On the same count and under the same terms, the same measure for VASH1 H204A/C169S-SVBP: 750 nM.
In turn, “VASH1-SVBP complex, VASH1 mutated at R222 (from UniProt Q7L8A9 44-315; Q8N300 1-66)” registered a dissociation constant (Kd) with purified tubulin dimer [3] of 1400 nM.
As to VASH1 R222E/R223E/C169S-SVBP, the Kd with purified tubulin dimer [1] is 1310 nM.

As a reminder, the Kd is the free concentration of one partner at which half of the binding sites on the other are occupied at equilibrium, for simple one-to-one binding.
